Source: PMC11346174 (Investigative Ophthalmology & Visual Science, 2024)

How the values were obtained:
[1] = biological target: T1, PEDF-IgG Fc fusion protein (PEDF-Fc) (human, UniProt P36955 20-418); assay: peptide or protein array
T1 sequence (looked up): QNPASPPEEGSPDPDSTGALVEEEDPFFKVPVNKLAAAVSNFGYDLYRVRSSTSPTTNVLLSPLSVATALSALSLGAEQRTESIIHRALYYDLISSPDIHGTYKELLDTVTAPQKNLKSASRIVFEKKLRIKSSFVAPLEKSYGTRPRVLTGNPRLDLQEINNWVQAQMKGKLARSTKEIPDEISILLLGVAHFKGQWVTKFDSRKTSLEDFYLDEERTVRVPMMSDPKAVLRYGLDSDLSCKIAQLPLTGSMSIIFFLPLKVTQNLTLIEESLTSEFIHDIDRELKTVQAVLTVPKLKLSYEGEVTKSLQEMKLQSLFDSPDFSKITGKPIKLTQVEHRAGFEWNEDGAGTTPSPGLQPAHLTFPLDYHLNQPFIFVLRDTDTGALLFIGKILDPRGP

[2] = biological target: T1, PEDF-IgG Fc fusion protein (PEDF-Fc); assay: colorimetric cell binding assay

## YDKAFITVKHRKQQVLETVAGKR [VEGFR-1/Flt-1 amino acid stretch (2), 303-325 (D4), cellulose-bound peptides]
[1]
  binding result: binds

## NKRASVRRRIDQSNSHA [peptide AE10]
[2]
  binding result: binds

## EKNKRASVRRRIDQSNSHANI [VEGFR-1/Flt-1 amino acid stretch (1), 245-265 (D3), cellulose-bound peptides]
[1]
  binding result: binds

## AFITVKHRKQQVLETVA [peptide AF10]
[2]
  binding result: binds

## IRGEHCNKKAVFSRISKFKSTRN
[1]
  binding result: binds
